# From article PMC8809517, “Cofactor-independent RNA editing by a synthetic S-type PPR protein”
# Where a chain is given by its changes, count along the chain named.
# T1: GFP-9S library array, motif 4 ND N98F;D124Q (synthetic construct, N98F;D124Q)
# T1 chain: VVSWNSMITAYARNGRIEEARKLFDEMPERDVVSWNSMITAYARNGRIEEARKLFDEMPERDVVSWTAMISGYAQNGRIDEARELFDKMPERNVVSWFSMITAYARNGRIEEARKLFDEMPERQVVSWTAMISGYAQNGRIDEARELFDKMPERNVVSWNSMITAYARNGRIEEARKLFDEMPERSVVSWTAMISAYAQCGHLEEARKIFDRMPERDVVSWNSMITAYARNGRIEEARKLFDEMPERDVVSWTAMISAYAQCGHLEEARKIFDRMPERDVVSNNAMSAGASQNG
# T2: GFP-9S library array, motif 4 ND N98P;D124R (synthetic construct, N98P;D124R)
# T2 chain: T1 chain with F98P, Q124R
# T3: GFP-9S library array, motif 4 ND N98R;D124T (synthetic construct, N98R;D124T)
# T3 chain: T1 chain with F98R, Q124T
# T4: GFP-9S library array, motif 4 ND N98S;D124L (synthetic construct, N98S;D124L)
# T4 chain: T1 chain with F98S, Q124L
# T5: GFP-9S library array, motif 4 ND N98D;D124H (synthetic construct, N98D;D124H)
# T5 chain: T1 chain with F98D, Q124H
# Tests used:
# Test in all cases: high-throughput RNA pulldown from lysate on Ni-NTA beads; HRP: 50 mM Tris pH 8, 150 mM NaCl, 1 mM beta-mercaptoethanol, 50 ug/ml BSA, 3 ug/ml yeast RNA, 0.5% heparin; ITC and FP: Tris pH 8, 200 mM KCl, 5% glycerol; MST: 50 mM Tris pH 8, 200 mM NaCl, 1 mM DTT, BSA, heparin, 0.05% Tween 20
# Conditions in all cases: tags: N-terminal His-eGFP
# [1] = biological target: T1, GFP-9S library array, motif 4 ND …
# [2] = biological target: T2, GFP-9S library array, motif 4 ND …
# [3] = biological target: T3, GFP-9S library array, motif 4 ND …
# [4] = biological target: T4, GFP-9S library array, motif 4 ND …
# [5] = biological target: T5, GFP-9S library array, motif 4 ND …
Binder,Kd ([1]; label: 5' Cy5),Kd ([2]; label: 5' Cy5),Kd ([3]; label: 5' Cy5),Kd ([4]; label: 5' Cy5),Kd ([5]; label: 5' Cy5),Kd ([1]; label: 5' IRDye 800CW),Kd ([2]; label: 5' IRDye 800CW),Kd ([3]; label: 5' IRDye 800CW),Kd ([4]; label: 5' IRDye 800CW),Kd ([5]; label: 5' IRDye 800CW)
AUUACACGUGA (ssRNA) [Cy5-rpoA],158 nM,151 nM,74.7 nM,83.5 nM,123 nM,,,,,
AUUAGACGUGA (ssRNA) [Cy5-rpoA-G],143 nM,166 nM,98.5 nM,94 nM,120 nM,,,,,
AUUAAACGUGA (ssRNA) [IR-rpoA-A],,,,,,419 nM,329 nM,173 nM,159 nM,311 nM
AUUAUACGUGA (ssRNA) [IR-rpoA-U],,,,,,466 nM,245 nM,85.9 nM,164 nM,182 nM
